# Laboratory results as given in IntAct's records for PubMed 19118384.
# B1: FAS-associated death domain protein (Homo sapiens), Q13158 (parent)
# chain: MDPFLVLLHSVSSSLSSSELTELKFLCLGRVGKRKLERVQSGLDLFSMLLEQNDLEPGHTELLRELLASLRRHDLLRRVDDFEAGAAAGAAPGEEDLCAAFNVICDNVGKDWRRLARQLKVSDTKIDSIEDRYPRNLTERVRESLRIWKNTEKENATVAHLVGALRSCQMNLVADLVQEVQQARDLQNRSGAMSPMSWNSDASTSEAS
# Variants of: B1
# Conditions: with FAS
row,Variant,effect of a mutation on the interaction
1,MDPFLVLLHSVSSSLSSSELTELKFLCLGRVGKRKLERVQSGLDLFSMLLEQNDLEPGHTELLRELLASLRRHDLLRRVDDFEAGAAAGAAPGEEDLCAAFNVICDNVGKDWRRLARQLKVSDTKIDSIEDRYPRNLTERVRESLRIWKNTEKENATVAHLVGALRSCQMNEVADLVQEVQQARDLQNRSGAMSPMSWNSDASTSEAS [L172E],decreasing interaction
